Reference: US20060035823A1 (published 2006)

Columns and labels:
[1] = biological target: T1, His-tagged TRAF-2 (pEBVHis/TRAF-2) (UniProt Q12933 1-501); test: co-immunoprecipitation from 293T lysates, anti-X-press IP, anti-HA blot
T1 construct: Specificity control, over-expressed in 293T cells
T1 sequence (looked up): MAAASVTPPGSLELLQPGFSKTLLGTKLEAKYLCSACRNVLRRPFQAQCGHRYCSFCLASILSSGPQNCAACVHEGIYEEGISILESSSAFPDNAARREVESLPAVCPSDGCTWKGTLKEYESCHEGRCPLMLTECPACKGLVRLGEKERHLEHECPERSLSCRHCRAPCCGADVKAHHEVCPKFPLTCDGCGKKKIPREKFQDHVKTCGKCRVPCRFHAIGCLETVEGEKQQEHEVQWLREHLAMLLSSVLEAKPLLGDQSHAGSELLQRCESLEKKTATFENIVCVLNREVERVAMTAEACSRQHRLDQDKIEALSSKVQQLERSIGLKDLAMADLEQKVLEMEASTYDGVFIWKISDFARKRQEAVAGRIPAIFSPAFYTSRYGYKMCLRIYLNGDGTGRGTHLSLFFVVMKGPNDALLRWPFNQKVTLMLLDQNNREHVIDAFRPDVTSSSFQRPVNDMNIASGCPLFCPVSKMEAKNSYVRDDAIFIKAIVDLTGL
Protocol: (§1) Membranes were washed with 1× Tris Buffered Saline (TBS) containing 50 mM Tris pH 7.5 (Fisher Scientific) and 150 mM sodium chloride (Fisher Scientific), and then blocked in 1% Blocking Reagent (Roche Molecular Biochemicals) dissolved in 1×TBS.
(§2) Membranes were probed with anti-Xpress, diluted 1:5000 in 0.5% Blocking Reagent, or anti-HA (12CA5) at 0.4 μg/ml (Roche Molecular Biochemicals) in 0.5% Blocking Reagent. Membranes were incubated for 1 hour, then washed twice with TBS containing 0.1% Tween-20 (Sigma Chemical Co.) (1× TBST) and twice with 0.5% Blocking Reagent. Membranes were incubated with anti-mouse IgG-Peroxidase (Roche Molecular Biochemicals) at 1:2500 in 0.5% Blocking Reagent for 60 minutes at room temperature, then washed 4 times in 1× TBST. Proteins were detected with the BM Chemiluminescence Blotting Substrate (POD) (Roche Molecular Biochemicals). Following detection, membranes were stripped of antibodies by incubation with stripping solution containing 62.5 mM Tris pH 6.7, 2% SDS, and 50 mM 2-mercaptoethanol (Fisher Scientific) for 30 minutes at 50° C. The membranes were rinsed with distilled water and then with 1×TBS. The stripped membranes were blocked and reprobed with antibodies as described above.

[2] = biological target: T2, HA-tagged β-galactosidase (pCGN/LacZ) (UniProt P00722 1-1024 = β-galactosidase); test: co-immunoprecipitation from 293T lysates, anti-HA IP, anti-X-press blot
T2 construct: Specificity control, over-expressed in 293T cells; also called HA-LacZ; RA-LacZ; not shown: N-terminal hemagglutinin (HA) tag of vector pCGN
Protocol: as §1, with “Samples were separated by 10% SDS PAGE and transferred to Immobilon-P PVDF membranes (Millipore Corporation, Bedford, Mass.). Membranes” for “Membranes”
as §2

[3] = biological target: GAL4 BD/TRAF-2 fusion (pGBT9/TRAF-2) (UniProt P04386 1-147; Q12933 1-501, limits assumed); test: yeast two-hybrid (β-gal, growth without His)
[4] = biological target: GAL4 BD/TRAF-4 fusion (pGBT9/TRAF-4) (UniProt P04386 1-147; Q9BUZ4 1-470, limits assumed); test: yeast two-hybrid (β-gal, growth without His)
[5] = biological target: GAL4 BD/TRAF-6 fusion (pGBT9/TRAF-6) (UniProt P04386 1-147; Q9Y4K3 1-522, limits assumed); test: yeast two-hybrid (β-gal, growth without His)
[6] = biological target: GAL4 BD/TRAF-5 fusion (pGBT9/TRAF-5) (UniProt P04386 1-147; O00463 1-557, limits assumed); test: yeast two-hybrid (β-gal, growth without His)
[7] = biological target: T3, GAL4 DNA-binding domain (BD)/full-length TRAF-3 fusion construct (pGBT9/TRAF-3) (human, UniProt P04386 1-147; Q13114 1-568); test: yeast two-hybrid
T3 construct: Yeast two-hybrid fusion expressed in yeast Y190; BD is put first as in the vector; also called BD/TRAF-3; bait construct

[8] = biological target: GAL4 BD fusion of TRAF-3 aa 267-343 (coiled-coil domain only), in pGBT9 (human, UniProt P04386 1-147; Q13114 267-343); test: yeast two-hybrid
[9] = biological target: T4, GAL4 BD fusion of TRAF-3 aa 110-265 (Zn fingers only), in pGBT9 (human, UniProt P04386 1-147; Q13114 110-265); test: yeast two-hybrid
T4 construct: The range is printed without its hyphen

T2 sequence (P00722 whole entry): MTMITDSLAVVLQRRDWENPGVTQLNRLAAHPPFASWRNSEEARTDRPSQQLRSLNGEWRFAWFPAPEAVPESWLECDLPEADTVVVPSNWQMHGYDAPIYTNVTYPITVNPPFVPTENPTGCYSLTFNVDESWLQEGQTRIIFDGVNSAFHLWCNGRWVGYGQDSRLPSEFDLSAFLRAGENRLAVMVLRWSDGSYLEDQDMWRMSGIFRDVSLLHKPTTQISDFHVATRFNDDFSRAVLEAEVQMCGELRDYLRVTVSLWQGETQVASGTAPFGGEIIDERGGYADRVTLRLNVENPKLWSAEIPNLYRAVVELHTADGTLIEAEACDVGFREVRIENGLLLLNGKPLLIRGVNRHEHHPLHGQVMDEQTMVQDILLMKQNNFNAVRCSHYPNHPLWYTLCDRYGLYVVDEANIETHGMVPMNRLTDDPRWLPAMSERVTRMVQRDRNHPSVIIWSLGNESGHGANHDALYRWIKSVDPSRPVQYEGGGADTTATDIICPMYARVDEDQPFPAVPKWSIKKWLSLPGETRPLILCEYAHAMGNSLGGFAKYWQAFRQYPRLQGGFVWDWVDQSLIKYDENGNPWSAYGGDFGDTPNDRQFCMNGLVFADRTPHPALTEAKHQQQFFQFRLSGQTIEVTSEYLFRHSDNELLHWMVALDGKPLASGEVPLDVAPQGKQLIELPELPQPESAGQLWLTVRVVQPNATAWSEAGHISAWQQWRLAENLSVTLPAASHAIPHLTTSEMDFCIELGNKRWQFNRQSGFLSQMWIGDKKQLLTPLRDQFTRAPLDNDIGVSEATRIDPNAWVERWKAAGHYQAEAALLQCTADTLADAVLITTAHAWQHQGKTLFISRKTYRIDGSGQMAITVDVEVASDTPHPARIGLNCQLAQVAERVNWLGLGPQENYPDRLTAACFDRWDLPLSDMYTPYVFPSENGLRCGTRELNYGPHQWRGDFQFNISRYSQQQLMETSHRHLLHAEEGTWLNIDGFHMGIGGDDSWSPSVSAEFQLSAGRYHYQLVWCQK

B1: HA-tagged p62(336-522) (pCGN/p62(336-522)), N-terminal hemagglutinin tag (other)
chain: LINKWSLELEDQERHFLQQATQVNAWDRTLIENGEKITSLHREVEKVKLDQKRLDQELDFILSQQKELEDLLSPLEELVKEQRATIYLQHADEERQKTYKLAENIDAQLKRMAQDLKDIIEHLNTSGAPADTSDPLQQICKILNAHMDSLQWIDQNSALLQRKVEEVTKVCVGRRKEQERSFRITFD
notes: not shown: N-terminal hemagglutinin (HA) tag of vector pCGN
B1: no binding [1].

B2: His-tagged TRAF-3 (pEBVHis/TRAF-3), amino-terminal poly-histidine tag and X-press epitope (other, human, UniProt Q13114 1-568, looked up, not shown: small tags and cut ends)
chain: MESSKKMDSPGALQTNPPLKLHTDRSAGTPVFVPEQGGYKEKFVKTVEDKYKCEKCHLVLCSPKQTECGHRFCESCMAALLSSSSPKCTACQESIVKDKVFKDNCCKREILALQIYCRNESRGCAEQLMLGHLLVHLKNDCHFEELPCVRPDCKEKVLRKDLRDHVEKACKYREATCSHCKSQVPMIALQKHEDTDCPCVVVSCPHKCSVQTLLRSELSAHLSECVNAPSTCSFKRYGCVFQGTNQQIKAHEASSAVQHVNLLKEWSNSLEKKVSLLQNESVEKNKSIQSLHNQICSFEIEIERQKEMLRNNESKILHLQRVIDSQAEKLKELDKEIRPFRQNWEEADSMKSSVESLQNRVTELESVDKSAGQVARNTGLLESQLSRHDQMLSVHDIRLADMDLRFQVLETASYNGVLIWKIRDYKRRKQEAVMGKTLSLYSQPFYTGYFGYKMCARVYLNGDGMGKGTHLSLFFVIMRGEYDALLPWPFKQKVTLMLMDQGSSRRHLGDAFKPDPNSSSFKKPTGEMNIASGCPVFVAQTVLENGTYIKDDTIFIKVIVDTSDLPDP
notes: Over-expressed in 293T cells; tested in cell lysates
B2: no binding [2].

B3: GAL4 AD fusion of p62 nucleoporin aa 270-522 (pACT/p62(270-522)) (other, UniProt P37198 270-522, looked up, not shown: large carriers)
chain: TTSTAATATATTTSSSSTTGFALNLKPLAPAGIPSNTAAAVTAPPGPGAAAGAAASSAMTYAQLESLINKWSLELEDQERHFLQQATQVNAWDRTLIENGEKITSLHREVEKVKLDQKRLDQELDFILSQQKELEDLLSPLEELVKEQSGTIYLQHADEEREKTYKLAENIDAQLKRMAQDLKDIIEHLNTSGAPADTSDPLQQICKILNAHMDSLQWIDQNSALLQRKVEEVTKVCEGRRKEQERSFRITFD
B3: no binding [3]; no binding [4]; no binding [5]. B3: no binding [6].

B4: GAL4 AD fusion of p62 nucleoporin aa 302-391 (deletion mutant in pGAD424) (other, not shown: large carriers; small tags and cut ends)
chain: IPSNTAAAVTAPPGPGAAAGAAASSAMTYAQLESLINKWSLELEDQERHFLQQATQVNAWDRTLIENGEKITSLHREVEKVKLDQKRLDQ
B4: no binding [7].

B5: GAL4 AD fusion of p62 nucleoporin aa 336-522 (pACT/p62(336-522)) (other, not shown: large carriers)
chain: B1 chain
B5: no binding [8]; no binding [9].
